Laboratory results published in the supplement of paper PMC10567573.

B1: APBB1IP (parent)
chain: FNYSVGFKDLNESLNALEDQDLDA
B2: RBBP5 (parent)
chain: TGTSNTTAIKSIEFARKGSCFLIN

Variants of: B1
Test: protein stability index of a GFP-peptide fusion (GPS, HEK-293T) (PSI 1-6); higher = more stable
Details: c terminus: a fixed tail appended
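Further: lentivirally expressed fusions sorted by FACS into six bins by GFP to DsRed ratio, PSI derived from sequencing read proportions per bin multiplied by bin number.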

Protein stability index: each site, then its substitutions
F1: V 4.66, I 4.43, L 4.7, E 5.53, G 4.72, M 5.31, N 5.51, S 4.44, T 5.35, C 4.79, R 5.42, Y 4.91, W 4.53
D23: G 4.41, W 1.81, L 3.14, E 4.22, S 4.02, V 3.18, H 3.69, N 4.31, Y 2.57, I 3.56, T 3.85, C 3.33, P 4.38, K 3.87
F7: H 4.57, Q 5.15, M 4.48, N 5.13, L 4.53, G 5.22, W 3.9, I 4.21, E 5.24, A 5.3, D 5.21, C 5.09, P 4.49, K 5.18, S 5.41
D21: K 4.19, T 4.14, C 3.57, G 3.94, E 4.25, Y 2.38, N 4.07, S 4.33, L 2.8, H 3.33, F 2.34, A 3.69
D19: V 3.56, E 4.53, C 4.06, N 4.04, Y 3.93, L 3.53, W 3.42, R 3.67, P 3.65, M 3.05, A 3.97, S 3.73
N2: H 1.98, F 3.07, Y 2.72, A 2.07, V 2.96, I 4.43, K 4.11, E 4.45, T 2.23, G 4.39, P 2.44
D9: H 4.08, Y 3.44, V 2.67, S 3.45, P 4.15, I 2.49, N 4.31, L 3.09, W 2.7, C 3.13, K 4.19, R 4.05, Q 4.22, F 3.52
K8: D 5.05, W 2.27, A 4.16, V 3.52, N 4.74, R 4.33, I 2.51, S 4.56, C 3.36, Q 4.72, M 3.73, E 5.1
E18: V 3.35, A 3.66, Q 3.98, K 3.82, I 2.67, G 3.96, D 4.34, M 3.59, T 3.44, C 3.56, L 3.24
L10: A 4.71, T 4.55, N 4.75, G 4.95, K 4.88, Y 4.52, E 5.09, P 4.62, V 4.86, M 4.81, Q 4.93, S 5.06
A16: I 4, T 4.57, F 3.92, K 4.36, D 4.6, V 3.47, P 4.33, Y 3.93, N 4.51, R 4.14, L 4.04, Q 4.52, M 4.1
N11: A 4.45, S 4.21, P 4.23, R 4.18, C 4.06, L 3.78, V 3.45, F 3.62, G 4.29
S4: E 5.53, V 3.72, L 3.71, H 4.79, D 5.11, W 2.56, K 4.02, N 4.61, I 3.76
V5: T 4.96, F 4.34, W 3.68, N 4.36, D 4.65, G 4.19, M 4.51, A 4.95, E 4.47, S 4.86, R 4.82, L 4.55, Q 4.65, K 4.65
A24: G 3.68, N 4.5, K 4.81, P 4.42, D 4.68, V 4.5, M 3.85, L 4.09, W 3.77, R 3.83, S 4.59, Q 4.72, F 3.85
L22: F 4.49, N 4.79, M 4.72, Y 4.37, D 4.68, K 4.86, I 4.74, A 5.06, Q 4.67, T 4.82, W 3.86, G 5.28, H 4.96
L14: F 4, H 5.1, I 4.71, C 3.86, D 4.89, E 4.51, A 4.71, V 4.5, R 4.57, G 4.9
E12: K 4.29, R 3.92, A 3.74, T 4.24, C 2.82, W 2.8, V 3.96, L 3.23, Y 3.12, Q 4.28, F 3.63, M 3.87, P 4.53, S 4.17, N 4.37
S13: W 2.85, K 3.8, A 4.56, F 3.34, V 3.67, I 2.88, D 4.31, P 4.41, L 2.83, G 4.58, Y 3.54, H 4.51, T 3.72, N 4.17
G6: H 3.71, C 3, V 2.55, A 3.34, E 4.2, M 3.12, L 2.3, Y 1.71, F 2.58, R 3.9, P 4.73, Q 4.17, W 2.32, T 3.57, D 4.85
N15: A 4.44, S 4.15, Q 4.28, K 4.77, T 4.78, F 3.72, H 4.08, R 3.64, G 4.78, L 4.04, Y 3.62, E 4.14, V 4.7
Q20: Y 3.85, S 3.97, H 4.42, L 3.88, I 3.97, W 3.7, T 4.84, R 3.21, N 4.53, V 4, D 4.4, F 3.57, E 4.69, C 4.02
Y3: F 3.71, V 3.54, A 5.06, T 5.54, W 3.87, P 5.15, L 4.52, Q 5.36, H 4.07, G 4.82, M 4.4, S 4.76
L17: A 4.63, D 5.25, G 4.51, S 4.78, E 5.04, N 5.02, I 4.68, T 5.18, V 4.68, R 5.01, K 4.48, M 4.17, C 4.48, W 3.85, Y 3.96

Variants of: B2
Test: as above
Details: c terminus: a fixed tail appended

Protein stability index of substitutions, site by site:
T7: N 2.14
F21: A 3.36, R 3.15
F14: D 3.15
E13: L 2.38
C20: W 1.63
G18: E 2.62
I23: C 2.36
I9: K 2.47, R 2.34, P 2.61
A15: G 2.38
L22: H 2.52, F 1.99
T3: N 1.86, Q 2.11, Y 1.94
N24: W 2.71, M 2.16, Y 1.96
R16: T 2.26
S4: H 2.3
T6: W 1.74
T1: Y 1.79, D 3.69
A8: H 1.85, G 2.84, M 2.21
K10: G 2.19
